Data as given in paper PMC9910054.

Target: Mycobacterium tuberculosis chorismate mutase variant V55D (Mycobacterium tuberculosis)
Assay: crystal structure; sitting drop vapor diffusion, 20 °C; protein 44 mg/mL in 20 mM Bis Tris propane, pH 7.5, 150 mM NaCl; reservoir 0.2 M zinc acetate dihydrate, 10% w/v PEG 3000, 0.1 M sodium acetate, pH 4.5; space group P22(1)2(1); 2.1 Å

Mycobacterium tuberculosis chorismate mutase variant V55D (enzyme)
stoichiometry N: 2
